Experimental data as given in article PMC6386680 (Proceedings of the National Academy of Sciences of the …, 2019).

Assays:
Gal-3 CRD (trGal-3) = Gal-3 CRD (trGal-3) (Homo sapiens, UniProt P17931); experiment: hydrogen-deuterium exchange mass spectrometry; type: binding; conditions: absence vs presence of lactose; canonical site
[1] = target: Gal-3–8S–Gal-1 (covalently connected heterodimer, Gal-3 CRD, 33-aa Gal-8 linker, Gal-1 CRD) (human); experiment: SAXS
[2] = target: Gal-3–8S–Gal-1 (covalently connected heterodimer, Gal-3 CRD, 33-aa Gal-8 linker, Gal-1 CRD) (human); experiment: SEC

Chain of Gal-3 CRD (trGal-3) (P17931 108-250 limits assumed): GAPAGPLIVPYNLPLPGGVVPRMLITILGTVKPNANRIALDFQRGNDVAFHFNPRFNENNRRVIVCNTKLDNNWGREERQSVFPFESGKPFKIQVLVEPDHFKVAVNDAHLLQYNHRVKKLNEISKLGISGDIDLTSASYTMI

OC[C@H]1O[C@@H](O[C@H]2[C@H](O)[C@@H](O)C(O)O[C@@H]2CO)[C@H](O)[C@@H](O)[C@H]1O (stereo partly drawn) [Lac]
hydrogen-deuterium exchange mass spectrometry (Gal-3 CRD (trGal-3)): significantly decreased deuterium uptake was found in the region of the canonical binding site

Gal-3–8S–Gal-1 (covalently connected heterodimer, Gal-3 CRD, 33-aa Gal-8 linker, Gal-1 CRD)
stoichiometry N [1]: 2
stoichiometry N [2]: 2
